From patent publication US20160046716A1 (Dana-Farber, published 2016)

Columns and labels:
[1] = target: MICA antigen (UniGene Hs.130838) with a C-terminal BirA tag (human) (UniProt Q29983); assay: flow cytometry of MICA-coated streptavidin beads, antibody directly conjugated to PE; legend box says 0.0002ug, label inside the plot 0.002µg/ml; streptavidin bead without MICA: 2.16
[2] = target: MICA antigen (UniGene Hs.130838) with a C-terminal BirA tag (human) (UniProt Q29983); assay: flow cytometry of MICA-coated streptavidin beads, antibody directly conjugated to PE; legend box says 0.024ug, the label inside the plot says 0.01µg/ml (they disagree); streptavidin bead without MICA: 1.95
[3] = target: human MICA on transduced B16 melanoma cells (human) (UniProt Q29983); assay: flow cytometry of B16 cells transduced with human MICA, antibody at 10 ug/ml; unstained 11.4; the same antibody on untransduced B16: 7.49 (unstained 7.12)
Chain of human MICA on transduced B16 melanoma cells (human) (Q29983 24-383): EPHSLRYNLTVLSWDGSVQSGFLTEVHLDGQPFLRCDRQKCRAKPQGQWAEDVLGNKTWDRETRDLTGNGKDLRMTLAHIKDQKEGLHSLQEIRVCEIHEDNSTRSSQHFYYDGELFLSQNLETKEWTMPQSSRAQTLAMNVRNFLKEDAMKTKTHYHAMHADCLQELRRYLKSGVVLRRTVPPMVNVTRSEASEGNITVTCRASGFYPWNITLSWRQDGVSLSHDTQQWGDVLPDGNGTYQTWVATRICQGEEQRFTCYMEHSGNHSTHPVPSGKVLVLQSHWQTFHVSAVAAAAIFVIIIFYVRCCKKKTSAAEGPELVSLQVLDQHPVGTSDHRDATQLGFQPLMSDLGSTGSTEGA

[4] = target: MICA antigen (UniGene Hs.130838) with a C-terminal BirA tag (human) (UniProt Q29983); assay: flow cytometry of MICA-coated streptavidin beads, antibody directly conjugated to PE; legend box says 0.001ug, the label inside the plot says 0.24µg/ml (they disagree); streptavidin bead without MICA: 1.95
[5] = target: MICA antigen (UniGene Hs.130838) with a C-terminal BirA tag (human) (UniProt Q29983); assay: flow cytometry of MICA-coated streptavidin beads, antibody directly conjugated to PE; legend box says 0.005ug, the label inside the plot says 1.2µg/ml (they disagree); streptavidin bead without MICA: 1.98
[6] = target: MICA antigen (UniGene Hs.130838) with a C-terminal BirA tag (human) (UniProt Q29983); assay: flow cytometry of MICA-coated streptavidin beads, antibody directly conjugated to PE; legend box says 0.12ug, the label inside the plot says 0.05µg/ml (they disagree); streptavidin bead without MICA: 1.95
[7] = target: human MICA on transduced B16 melanoma cells (human) (UniProt Q29983); assay: […], antibody at 10 ug/ml; […]
[8] = target: MICA antigen (UniGene Hs.130838) with a C-terminal BirA tag (human) (UniProt Q29983); assay: flow cytometry of MICA-coated streptavidin beads, Alexa488 anti-human IgG; antibody at 1.2µg/ml; streptavidin bead without MICA: 2.16
[9] = target: MICA antigen (UniGene Hs.130838) with a C-terminal BirA tag (human) (UniProt Q29983); assay: flow cytometry of MICA-coated streptavidin beads, Alexa488 anti-human IgG; antibody at 0.05µg/ml; streptavidin bead without MICA: 2.18
[10] = target: MICA antigen (UniGene Hs.130838) with a C-terminal BirA tag (human) (UniProt Q29983); assay: flow cytometry of MICA-coated streptavidin beads, Alexa488 anti-human IgG; antibody at 0.24µg/ml; streptavidin bead without MICA: 2.3
[11] = target: MICA antigen (UniGene Hs.130838) with a C-terminal BirA tag (human) (UniProt Q29983); assay: flow cytometry of MICA-coated streptavidin beads, Alexa488 anti-human IgG; antibody at 30µg/ml; streptavidin bead without MICA: 3.53
[12] = target: MICA antigen (UniGene Hs.130838) with a C-terminal BirA tag (human) (UniProt Q29983); assay: flow cytometry of MICA-coated streptavidin beads, Alexa488 anti-human IgG; antibody at 6µg/ml; streptavidin bead without MICA: 2.63
[13] = target: T1, recombinant MICA alpha 3 domain (human, UniProt Q29983 206-299); assay: cytometric bead assay: biotinylated MICA alpha 3 domain on streptavidin beads, FITC anti-human IgG, flow cytometry
T1 construct: domain: alpha 3 domain; also called Alpha 3 MICA Domain
T1 sequence (looked up): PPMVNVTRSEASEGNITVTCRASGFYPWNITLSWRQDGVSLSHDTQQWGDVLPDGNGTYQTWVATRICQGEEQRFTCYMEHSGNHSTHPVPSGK

[14] = target: T2, recombinant MICA*009 conjugated to Luminex beads (commercial kit) (human, UniProt Q29983 26-307); assay: Luminex bead assay (One Lambda kit), PE anti-human IgG secondary; bars assigned by their order in the legend box
T2 chain: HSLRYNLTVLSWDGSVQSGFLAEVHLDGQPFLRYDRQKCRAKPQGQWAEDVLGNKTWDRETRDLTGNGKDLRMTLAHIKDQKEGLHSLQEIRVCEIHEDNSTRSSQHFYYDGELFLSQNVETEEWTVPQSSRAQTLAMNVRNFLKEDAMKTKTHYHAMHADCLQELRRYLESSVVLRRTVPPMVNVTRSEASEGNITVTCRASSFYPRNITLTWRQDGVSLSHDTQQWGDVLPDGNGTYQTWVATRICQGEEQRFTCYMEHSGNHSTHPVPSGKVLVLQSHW

Chain of MICA antigen (UniGene Hs.130838) with a C-terminal BirA tag (human) (Q29983 other isoform, or with tags, fused parts or gaps limits assumed): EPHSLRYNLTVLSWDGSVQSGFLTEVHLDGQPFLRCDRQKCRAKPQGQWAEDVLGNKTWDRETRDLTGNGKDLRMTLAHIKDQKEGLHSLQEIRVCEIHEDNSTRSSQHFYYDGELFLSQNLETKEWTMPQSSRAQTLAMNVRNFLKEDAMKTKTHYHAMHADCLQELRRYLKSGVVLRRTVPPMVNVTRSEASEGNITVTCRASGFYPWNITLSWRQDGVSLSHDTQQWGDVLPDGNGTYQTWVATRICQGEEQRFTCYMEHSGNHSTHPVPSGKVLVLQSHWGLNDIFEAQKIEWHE

## commercial anti-MICA/MICB monoclonal antibody (clone 6D4, BioLegend)
[1]
  fluorescence value (statistic not given, FL2-H): 4.31
[2]
  fluorescence value (statistic not given, FL2-H): 194
[3]
  Geom. Mean:FL1-H: 188
[4]
  fluorescence value (statistic not given, FL2-H): 16.8
[5]
  fluorescence value (statistic not given, FL2-H): 65.9
[6]
  fluorescence value (statistic not given, FL2-H): 391

## negative control antibody (TTCF specific)
[7]
  Geom. Mean:FL1-H: 11.5
[8]
  fluorescence value (statistic not given, FL1-H): 2.27
[9]
  fluorescence value (statistic not given, FL1-H): 2.23
[10]
  fluorescence value (statistic not given, FL1-H): 2.28
[11]
  fluorescence value (statistic not given, FL1-H): 3.43
[12]
  fluorescence value (statistic not given, FL1-H): 2.62

B1: CM33322 Ab11 (antibody, V domains shown)
VH: QVQLQESGPGLVKPSENLSLTCTVSDASMSDYHWSWIRQAAGKGLEWIGRMYSTGSPYYKPSLKGRVTMSIDTSKNQFSLKLASVTAADTAIYYCASGQHIGGWVPPDFWGQGTLVTVSS
VL: DIVMTQTPLSSPVTLGQPASISCRSSEGLVYSDGDTYLSWFHQRPGQPPRLLIYKISNRFSGVPDRFSGSGAGTDFTLKISRVEAEDVGVYYCMQATHFPWTFGQGTKVEVKR
notes: also called CM33322 mAb11; CM33322 11
[13]
  binding result: no binding (tested: 10 µg/ml)

B2: CM24002 Ab2 (antibody, V domains shown)
VH: QVQLQESGPGLVEPSGTLSLTCTVSGGSISRSNWWSWVRQPPGEGLEWIGEIHHIGRSSYNPSLKSRVTMSVDKSQNQFSLRLTSVTAADTAVYYCAKNGYYAMDVWGQGTTVTVSS
VL: EIVLTQSPGTLSLSPGERATLSCRASQSVSSDFLAWYQQKPGQAPRLLIYATSFRATGISDRFSGSGSGTDFSLTINRLEPEDFAVYYCQHYRSSPPWYTFAQGTKLDMRRTVAAPSV
notes: also called anti-MICA antibody ID-6; antibody ID 6
[13]
  binding result: no binding (tested: 10 µg/ml)

B3: CM24002 Ab4 (antibody, V domains shown)
VH: QVQLQESGPGLVKPSGTLSLTCAVSGASITNGAWWSWVRQPPGKGLEWIGEIYLNGNTNSNPSLKSRVIISVDKSKNHFSLTLNSVTAADTAVYYCAKNAAYNLEFWGQGALVTVSS
VL: EIVLTQSPGTLSLSPGERATLSCRASQTVSSPYVAWYQQKRGQAPRLLIYGASTRATGIPDRFSGSGSGTDFTLTISRLEPEDFAVYYCQQYDRSYYYTFGQGTKLEIK
notes: also called anti-MICA antibody ID-7; antibody ID 7
[13]
  binding result: no binding (tested: 10 µg/ml)

B4: MICA-Ab20 (antibody, V domains shown)
VH: QVQLQQWGAGLLKPSETLALTCAVSGGSFTDHYWSWIRQAPGKGLEWIGEINHSGVTNYNPSLKSRLTISVDTSKSQFSLRLTSVTAADTALYYCAKTGLYYDDVWGTFRPRGGFDSWGQGTLVTVSS
VL: DIVMTQSPDSLAVSLGERATINCKSSQSILYSSDNKNYLAWYQHKPGQPPKLLFYWASIRESGVPDRFSGGGSGTDFTLTISSLQAEDVAVYYCQQYYSPPCSFGQGTKLEIQ
notes: also called anti-MICA antibody ID-1; antibody ID 1
[14]
  binding result: no binding (tested: 200 µg/ml)
